Laboratory results as given in the RNAGym collection of RNA variant scans (doi:10.1073/pnas.2313332121).

B1: TPR t1 (parent)
chain: GACCAAUCUGCCCUCAGAGCUCGAGAACAUCUUCGGAUGCAGAGGAGGCAGGCUUCGGUGGCGCGAUAGCGCCAACGUCCUCAACCUCCAAUGCAUCCCACCACAUGAUGAUGCCUGAAGAGCCUUGGUUUUUUG

Variants of: B1
Assay: polymerase ribozyme fitness, log enrichment relative to wild type (log ratio); higher = more active; in vitro selection for triplet polymerase activity
Outline: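 Mutant libraries of each subunit of a heterodimeric triplet polymerase ribozyme were built by PCR and transcribed. Each library went through one round of in vitro selection in triplicate: annealing with biotinylated primer, partner subunit and triplets, frozen incubation at −7 °C, gel excision of extended constructs, streptavidin-bead capture and RT-PCR. Input and output libraries were Illumina-sequenced; only genotypes with ≥10 input reads and ≥1 read per output were kept. Fitness is log2(genotype enrichment/wild-type enrichment), using inverse-variance-weighted replicate averages.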

Going from GACCAAUCUGCCCUCAUAGCUCGAGAACAUCUUCGGAUGCAGAGGAGUCAGGCUUCGGUGGCGCGAUAGCGCCAACGUCCUCAACCUCCAAUGCAUCCCACCACAUGAUGAUGCGUGAAAAGCCUUGGUUUUUUG to GACCAAUCUGCCCUCAGAGCUCGAGAACAUCUUCGGAGGCAGAGGAGGCAGGCUUCGGUGUCGCGAUAGCGCCAACGUCCUCAACCUCCAAUGCAUCCCACCACAUGAUGAUGCCUGAAGAGCCUUGGUUUUUUG, the “polymerase ribozyme fitness (log ratio)” value rises from -1.53 to -0.532.

First: GACCAAUCUGCCCUCAGAGCUCGAGAACAUCUUCGGAUGCAGAGGAGGCUGGCUUCGGUGGCGCGAUAGCGCAAACGUCGUCAAACUCCGAUGCAUCCCACCACAUGAUGAUGCCUGAAGAGCCUUUGUUUUUUG
Second: GACCAAUCUGCCUUCAGAGCUCGAGAACAUCUUCGGAUGCUGAGGAGGCAGGCUUCGGUGGCGCGAUAGCGCCAACGUCCUCAACCUCCAAUGCAUCCCACCACAUGAUGAUGCCUGAAGAGCCUUGGUUUUUUG
The “polymerase ribozyme fitness (log ratio)” value of the first is lower: -2.82 for the first, -0.968 for the second.

Going from GACCAAUCUGCUCUCAGAGCUCGAGAACAUUUUCGGAUGCAGAGGAGGCAGGCUUCGGUGGCGCGAUAGCGCCAACUUCCUCAACCCCCAAUGCAUCCCACCACAUGAUGAUGCCUGAAGAGUCUUGGUUUUUUG to GACCAAUCUGCCCUCAGAGCUCGAGAACAUCUUCGGAUGCAGAGGAGGCAGGCUGCGGUGGCGCGAUAGCGCCAACGUCCUCAACCUCGAAUGCAUCCCACCACAUGAUGAUGCCUGAAGAGCCUUGGUUUUUUG, the “polymerase ribozyme fitness (log ratio)” value rises from -3.57 to -1.51.

First: GACCAAUCUGCCCUCAGAGCUCGAGAACAUCUUCGGAUGCAGAGUAGGCAGGCUCCGGUGGCGCGAUAGCGCCAACGUCCUCAACCUCCAAUGCAUCCCACCACAUGAUGAUGCCUGAAGAGCCUUGGUUUUUUG
Second: GACCAAUCUGCCCUCAGAGCUCGAGAACAUCUUCGGAUGCAGAGGAGGCAGGCUUCGGGGGCGCGAUAGCGCCAACGUCCUCAACCUCCAAUGCAUCCCAUCACAUGAUGAUGCCUGAAGAGCCUUGGUUGUAUG
The “polymerase ribozyme fitness (log ratio)” value of the first is lower: -1.88 for the first, -0.675 for the second.

First: GACCAAUCUGCCUUCAGAGCUCGAGAACAUCUUCGGAUGCAGAGGAGGCAGGCUUCGGUGGCGCGAUAGCGCCAACGUCCUCAACCUCCAAUGCAUCCCACCACAUGAUGAUGCCUGAAGUGCCUUGGUUUUUUG
Second: GACCAAUCUGCCCUCAGAGCUCGAGAACAUCUUCGGAUGCAGAGGAGCCAGGCUUCGGUGGCACGAUAGCGCCAACGUCCUCAACCUCCAAUGCAUCCCACCACAUGAUGAUUCCUGAAGAGACUUGGUUUUUUG
The “polymerase ribozyme fitness (log ratio)” value of the first is higher: 2.03 for the first, -5.64 for the second.

Compared with GACCAAUCAGCCCUCAGAGCUCGAGAACAUGUUCGGAUGCAGAGGAGGCAGGCUUCGGUGGCGCGAUAGCGCCAACGUCCUCCACCUCCAAUGCAUCCCACCACAUCAUGAUGCCUGAAGAGCCUUGGUUUUUUG, GACCAAUCUGCCAUCAGAGCUCGAGAACAUCUUCGGAUGCAGCGGAGGCAGGCUUCGGUGGCGCGAUAGCGCCAACGUCCUCGACCUCCAAUGCAUCCCACAACAUGAUAAUGCCUGAAGAGCCUUGGCUUUUUG is lower in “polymerase ribozyme fitness (log ratio)” value: -1.45 for the first, -6.67 for the second.

First: GACCAAUCUGCCCUCAGAGUUCGAGAACAUCUUCGGAUGCAAAGGAGGCAGGCUUCGGUGGCGCGAUAGCGCCAACGUCCUCAACCUCCAAUGCAUCCCACCACAAGAUGAUCCCUGAAGAGCCUUGGUUUUUUG
Second: GACCAAUCUGCCCUCAGAGCUCGAGAACAUCUUCGGAUGCUGAGGAGGCAGGCUUCGGUGGCGUGAUAGCGCCAACGUCCUCAACCUCCAAUGCAUCCCACCACAUGAUGAUGCCUGAAGAGCCUUGGUUUUUUG
The “polymerase ribozyme fitness (log ratio)” value of the first is lower: -2.24 for the first, -1.24 for the second.

First: GACCAAUCUGCCCUCAAAGCUCGAGAACAUCUUCGGUUGCAGAGGAGGCCGGCUUCGGUGGCGCGAUAGCGCCAACGUCCUCAACCUCCAAUGCAUCCCACCACAUGAUGAUGCCUGAAGAGCCUUGGUUUUUUG
Second: GAUCAAUCUGCCCUCAGUGCUCGAGAACAUCUUCGGAUGCAGAGGAGGCAGGCUUCGGUGGCGCGAUAGCGCCAACGUCCUCAACCUCUAAUGCAUCCCACCACAUGAUGAUGCCUGAACAUCCUUGGUUUUUUG
The “polymerase ribozyme fitness (log ratio)” value of the first is lower: -4.99 for the first, -3.19 for the second.

Going from GACCAAUCUGCCCUCAGAGCUCGAGAACAUUUUCGGAUGCAGAGGAGGCAGGCUUCGGUGGCGCGAUAGCGCCAACGUCCUCAACCUCCAAUGCAUCCCACCACAUGAUGAUGCCUGAAGAGCCUUGGUUUUUUU to GACCAAUCUGCCCUCAGAGCUCGAGAACAUCUUCGGAUGCGGAGGAGGCAGGCUUCGGUGGCGCGAUAGCGCCAACGUCCUCAACCUCCAAUGCAUCCCACCACAUGAUGACGCCUGAAGAGCCUUGGUUUUUUG, the “polymerase ribozyme fitness (log ratio)” value rises from -4.94 to 0.756.

Compared with GACCUAUCUGCCCUCAGAGCUCGAGAACAUCUUCGGAUGCAGAGGAUGCAGGCUUCGGUGGCGCGAUAGCGCCAACGUCCUCAACCUCCAAUGCAUCCCACCACAUGAUGAUGCCUGAAGAGCCUUGGUUUUUUG, GACCAAUCAGCCCUCAGAGCUCGAGAACAUCUUCGGAUGCAGAGGAGGCAGGCUUCGGUGGCGCGAUAGUGCCAACGUCCUCAACCUCCAAUGCAUCCCACCACAUGAUGAUGCCUGAAGAGCCUUGGUUUUUUG is higher in “polymerase ribozyme fitness (log ratio)” value: -1.29 for the first, 0.25 for the second.

First: GACCAAUCUGCCCUCAGAGCUCGAGAACAUCUUCGGAUGCAGAGGAGGCAGGCUUCGGUGGCGCGAUAGCGCCAACGUCCUCAACCUCCAAUGCGUCGCACCACAUGAUGAUGCCUGAAUAGCCUUGGUUUUUUG
Second: GACCAAUCUGCCCUCAGAGCUCGAGAACAUUUUCGGAUGCAGAGGAGGCAGGCUUCGGUGGCGCGAUAGCGCCAACGUCCUCAACCUCCAAUGCAUCCCACCACAUGAUGAUACCUGAAGAGCCUUGGUUUUUUG
The “polymerase ribozyme fitness (log ratio)” value of the first is lower: -6.09 for the first, -3.94 for the second.

Compared with GACCACUCUGCCCUCAUAGCUCGAGAACAUCUUCGGAUGCAGAGGAGGCAGGCUUCGGUGGCGCGAUAGCGCCAACGUCCUCAACCUCCAAUGCAGCUCACCACAUGAUGAUGCCUGAAGAGUCUUGGUUUUUUG, GACCAAUCUGCCCUCAGAGCUCGAGAACAUCUUCGGAUGCAGACGAGGCAGGGUUCGGUGGCGCGAUAGCGCCAACGUCCUCAACCUCCAAUGCAUCCCACCACAUGAUGAUGCCUGAAGAGCCUUGGUUUUUUG is higher in “polymerase ribozyme fitness (log ratio)” value: -6.92 for the first, -1.05 for the second.

GACCAAUCUGCCCUCAGAGCUCGAGAACAUCUUCGGAUGCAGAGGAGGCAGGCUUCGGUGGCGCGAUACCGCCAACGUCCUCAACCUCGAAUGCAUCCCACCACAUGAUGAUGCCUGAAGAGACUUGGUUUUUUU and GACCAAUCUGCCCUCAGAGCUCGAGAACAUCCUCGGAUACAAAGGAGGCAGACUUCGGUGGCGCGAUAGUGCCAACGUCCUCAACCUGCAAUGCAUCCCACCACAUGAUGAUGCCUGAAGAGCCUUGGUUUUUUG are within 0.2 log units of each other in “polymerase ribozyme fitness (log ratio)” value: -4.06 for the first, -3.93 for the second.

First: GACCAAUCUGCCCUCAGAGCUCGAGAACAUCUUCGGAAGCAGAGGAGGCAGGCUUCGGUGGCGCGAUAGCGCCAACGUCCUCAACCUCCAAUGCAUCCCACCACAUGAUGUUGCCUGAAGAGCCUUGGUUUUUUG
Second: GACCAAUCUGCCCUCAGAGCUCGAGAACAUCCUCGGAUGCAGAGGAGUCAGGCUUAGGUGGCGCGAUAGCUCCAACGUCCUCAACCUCCAAUGCAUCCCACCACAUGAUGAGGCCUGAAGAGCCUUGGUUUUUUG
The “polymerase ribozyme fitness (log ratio)” value of the first is lower: -4.52 for the first, -4.24 for the second.

First: GACCCAUCUGCCCUCAGAGCUCGAGAACAUCUUCGGAUGCAGAGGAGGCAGGCUUCGGUGGCGCGAUAGCGCCAACGUCCACAACCUCCAAUGCAUCCCACCACAUGAUGAUGCCUGAAGAGCCUUGGUUUUUUG
Second: GACCAAUCUGUCCUCAGAGCUCGAGAACAUCAUCGGAUGCAGAGGAGGCAGGCUUCGGUGGCGCGAUCUCGCCAACGUCCUCAACCUCCAAUGCAUCAAACCACAAGAUGAUGCGUCAAGAGCCUUGGUUUAUUG
The “polymerase ribozyme fitness (log ratio)” value of the first is higher: -1.65 for the first, -6.55 for the second.

Compared with GACCAAUCUGCCCUUAGAGCUCGAGAACAUCUUCGGCUGCAGAGGAGGCAGGCUUCGGUGCCGCGAUAGCGCCAACGUCCUCAACCUCCAAUGCAUCCCACCACAUGAUGAUGCCUGAAGAGCCUUGGUUUUUUG, GACCAAUCUGCCCUCAGAGCUCGAGAACAUCUUCGGAUGCAGAGGAGGCAGGCUUCGGUGGCGCGAUAGCUCCAACGUCCUCAACCUCCAAUGCAUCCCACCACAUGAUGAUGCCUGAAGAGCCUUGGUUUUUUC is higher in “polymerase ribozyme fitness (log ratio)” value: -3.39 for the first, 0.388 for the second.

Going from GACCAAUCUGCCUUCAGAGCUCGAGAACAUCUUCGGAUGCAGAGGAGGCAGGCUUAGGUGGCGCGAUAGCGCCAACGUCCUCAACCUCCAAUGCAGCCCACCACAUGAUGAUGCCUGAAGAGCCUUGGUUUUUUG to GUCCAAUCUGCCCUCAGAGCUCGAGAACAUCUUCGGAUCCAGAGAAGGCAGGCUUCGGUGGCGCGAUAGCGCCAACGUCCUCAACCUCCAAUGCAUCCCACCACAUGAUGAUGCCUGAAGAGCCUUGGUUUAUUG, the “polymerase ribozyme fitness (log ratio)” value falls from -0.637 to -3.5.

First: GAACAAUCUGCCCUCAGAGCUCGAGAACAUCUUCGGAUGCAGAGGAGGCAGGCUUCGGUAGCGCGAUAGCGCCAACGUCCUCAACCUCCAAUGCAUCCCACCACAUGAUGACGCCUGAAGAGCCUUGGUUUUUUG
Second: GACCAAUCUGCCCCCAGAGCUCGAGAACAUCUUCGGAUGCAGAGGAGGCAGGCUUCGGUGGCGCGAAAACGCCAACGUCCUCAACCUCCAAUGCAUCCCACCACAUGAUGAUGCCUGAAGAGCCUUGGUUUUUUG
The “polymerase ribozyme fitness (log ratio)” value of the first is higher: 0.261 for the first, -5.17 for the second.

First: GACCAAUCUUCCCUCAAAGCUCGAGAACAUCUUCGGAUGCAGAGGAGGCAGGCUUCGGUGGCGCGAUAGCGCCAACGUCCUCAACCUCCAAUGCAUCCCACCACAUGAUGAUGCCUGAAGAGCCUUGGUUUUUUG
Second: GACCAAUCUGCCCUCAGAGCUCGAGAACAUCUUCGGAUGCAGAGGAGGCAGGCUUCGGUGGCGCGAUAGCGCAAACGUCCUCAACCUCCAAUGCAUCCCACCACAUGAUGAUGCCUGAAGAGCCUUGGUUUUUUC
The “polymerase ribozyme fitness (log ratio)” value of the first is lower: -3.07 for the first, 0.342 for the second.

Going from GACCAAUCUGCCCUCAGAGCUCGAGUACAUCUUCGGAUGCAGAGGAGGCAGGCUUCGGUGGUGCGAUAGCGCCAACGCCCUCAACCUCCAAUGCAUCCCACCACAUGAUGAUGCCUGAAGAGCCUUGCUUUUUUG to GACCAAUCUGCCCUCAGAGCUCGAGAACAUCUUCGGAUGCAGAGGCGGCAGGCUUGGGUGGCGCGAUAGCGCCAACGUCCUCAACCUCCAAUGCAUCCCACCACAUGAUGAUGCCUGAAGAGCCUUGGUUUUUUG, the “polymerase ribozyme fitness (log ratio)” value rises from -6.34 to -1.37.

First: GACCAAUCUGCCCUCAGAGCUCGAGAACAUCUUCGGAUGCAGAGGAGGCAGGCUUCGGUGGCGCGAUAGCGCCAACGUCCUCAACCUCCAAUGCAUCCCACCACAUGAUGAUGCCUGAAGAGGCCUGGUUUUUUG
Second: GACCAAUCUGCCCUCAGAGCCCGAGAACAUCUUCGGAUGCGGAAGAGGCAGGCUUUGGUGGCGCGAUAGCGCCAACGUCCUCAACCUCCAAUGCAUCUCACCACAUGAUGAAGCCUGAAGAGCCUUGGUUUUUUG
The “polymerase ribozyme fitness (log ratio)” value of the first is higher: 1.61 for the first, -1.55 for the second.
